Laboratory results taken from article PMC5333127, “RD26 mediates crosstalk between drought and brassinosteroid signalling pathways” (Nature Communications, 2017).

Legend:
BES1 = BES1 (Arabidopsis thaliana, UniProt Q9LN63 1-335); test: EMSA; 25 mM HEPES-KOH pH 8.0, 1 mM DTT, 50 mM KCl, 10% glycerol, 20 μl, about 0.2 ng probe, 40 min on ice; 5% native PAGE in 1x TGE; conditions: protein: recombinant; chain copies: 2; label: 32P 5' end; blunt
BES1;RD26 (ANAC072) [1] = target: T1, BES1;RD26 (ANAC072) (Arabidopsis thaliana;Arabidopsis …, UniProt Q9LN63;Q93VY3 1-335;1-297, |); test: EMSA; stronger than either protein alone; proposed heterodimer; 25 mM HEPES-KOH pH 8.0, 1 mM DTT, 50 mM KCl, 10% glycerol, 20 μl, about 0.2 ng probe, 40 min on ice; 5% native PAGE in 1x TGE; conditions: protein: recombinant;recombinant; copies: 1;1; label: 32P 5' end; blunt
BES1;RD26 (ANAC072) [2] = target: T1, BES1;RD26 (ANAC072); test: EMSA; 25 mM HEPES-KOH pH 8.0, 1 mM DTT, 50 mM KCl, 10% glycerol, 20 μl, about 0.2 ng probe, 40 min on ice; 5% native PAGE in 1x TGE; conditions: protein: recombinant;recombinant; copies: 1;1; label: 32P 5' end; blunt
[3] = target: T2, GST-tagged RD26 DNA-binding/dimerization domain (aa 1-140) (Arabidopsis, UniProt Q93VY3 1-140); test: pull-down; GST pull-down; GST-tagged RD26 (full length or 1-140) or GST as bait, MBP-tagged BES1 (full length or 1-89) as prey; MBP-BES1 detected by anti-MBP antibody; 20% input shown; conditions: both partners purified
T2 construct: also called RD26 (1-140); source: recombinant protein, purified; pET-42a (Novagen)
T2 sequence (looked up): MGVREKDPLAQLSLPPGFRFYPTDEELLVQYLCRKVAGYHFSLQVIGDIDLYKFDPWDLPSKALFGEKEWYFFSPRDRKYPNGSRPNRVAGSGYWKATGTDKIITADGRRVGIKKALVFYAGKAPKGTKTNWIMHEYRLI

RD26 (ANAC072) = target: T3, RD26 (ANAC072) (Arabidopsis thaliana, UniProt Q93VY3 1-297); test: EMSA; 25 mM HEPES-KOH pH 8.0, 1 mM DTT, 50 mM KCl, 10% glycerol, 20 μl, about 0.2 ng probe, 40 min on ice; 5% native PAGE in 1x TGE; conditions: protein: recombinant; chain copies: 2; label: 32P 5' end; blunt
T3 sequence: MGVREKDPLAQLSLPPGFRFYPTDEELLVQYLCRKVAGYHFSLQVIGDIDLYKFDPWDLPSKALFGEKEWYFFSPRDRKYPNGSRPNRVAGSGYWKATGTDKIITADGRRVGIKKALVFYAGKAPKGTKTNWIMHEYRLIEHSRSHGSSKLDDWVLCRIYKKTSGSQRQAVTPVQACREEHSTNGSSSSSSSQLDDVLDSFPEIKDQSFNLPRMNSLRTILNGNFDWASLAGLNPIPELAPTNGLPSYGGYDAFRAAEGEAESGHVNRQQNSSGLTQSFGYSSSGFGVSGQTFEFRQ

BES1;RD26 (ANAC072) [4] = target: T1, BES1;RD26 (ANAC072); test: EMSA; synergistic; proposed heterodimer; 25 mM HEPES-KOH pH 8.0, 1 mM DTT, 50 mM KCl, 10% glycerol, 20 μl, about 0.2 ng probe, 40 min on ice; 5% native PAGE in 1x TGE; conditions: protein: recombinant;recombinant; copies: 1;1; label: 32P 5' end; blunt
[5] = target: T4, MBP-BES1, full-length BES1 (BRI1 EMS SUPPRESSOR 1) (Arabidopsis, UniProt Q9LN63 1-335); test: pull-down; GST pull-down; GST-tagged RD26 (full length or 1-140) or GST as bait, MBP-tagged BES1 (full length or 1-89) as prey; MBP-BES1 detected by anti-MBP antibody; 20% input shown; conditions: both partners purified
T4 construct: BES1 (BRI1 EMS SUPPRESSOR 1), BES1/BZR1 family transcription factor of Arabidopsis, full length; also called BES1 FL; source: recombinant protein, purified; pETMALc-H
T4 sequence (looked up): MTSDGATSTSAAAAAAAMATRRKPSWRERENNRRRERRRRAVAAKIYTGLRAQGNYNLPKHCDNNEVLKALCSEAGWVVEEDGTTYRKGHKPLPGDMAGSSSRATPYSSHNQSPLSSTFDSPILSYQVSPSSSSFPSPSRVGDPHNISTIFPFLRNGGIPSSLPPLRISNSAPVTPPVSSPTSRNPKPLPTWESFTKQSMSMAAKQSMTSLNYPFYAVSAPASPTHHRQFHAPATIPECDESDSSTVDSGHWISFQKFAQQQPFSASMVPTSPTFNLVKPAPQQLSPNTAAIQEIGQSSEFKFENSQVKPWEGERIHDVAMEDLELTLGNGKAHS

| Binder | binding result (BES1) | binding result (BES1;RD26 (ANAC072) [2]) | binding result (RD26 (ANAC072)) | other results |
| --- | --- | --- | --- | --- |
| At4g18010 BRRE WT (dsDNA) DNA 1: AAACCGAAAACACGTGTGAGAAAGAAGAAA DNA 2: TTTCTTCTTTCTCACACGTGTTTTCGGTTT | binds |  |  | binding result (BES1;RD26 (ANAC072) [1]): binds |
| At4g00360 E-box MU (dsDNA) DNA 1: ATTACCTAACTATAAAAAAATAATGTGTTC DNA 2: GAACACATTATTTTTTTATAGTTAGGTAAT |  | no binding |  |  |
| MBP-tagged BES1 DNA-binding/dimerization domain (aa 1-89) (domain or fragment, Arabidopsis, UniProt Q9LN63 1-89, looked up, also called BES1 (1-89); source: recombinant protein, purified; pETMALc-H) MTSDGATSTSAAAAAAAMATRRKPSWRERENNRRRERRRRAVAAKIYTGLRAQGNYNLPKHCDNNEVLKALCSEAGWVVEEDGTTYRKG |  |  |  | binding result [3]: binds |
| At4g00360 E-box WT (dsDNA) DNA 1: ATTACCTAACTATACATGTGTAATGTGTTC DNA 2: GAACACATTACACATGTATAGTTAGGTAAT | binds |  | binds | binding result (BES1;RD26 (ANAC072) [4]): binds |
| GST-RD26, full-length RD26 (RESPONSIVE TO …ON 26) (natural protein, Arabidopsis, UniProt Q93VY3 1-297, looked up, RD26 (ANAC072), NAC family transcription factor of Arabidopsis, full length; also called ANAC072; RD26 FL; source: recombinant protein, purified; pET-42a (Novagen)) MGVREKDPLAQLSLPPGFRFYPTDEELLVQYLCRKVAGYHFSLQVIGDIDLYKFDPWDLPSKALFGEKEWYFFSPRDRKYPNGSRPNRVAGSGYWKATGTDKIITADGRRVGIKKALVFYAGKAPKGTKTNWIMHEYRLIEHSRSHGSSKLDDWVLCRIYKKTSGSQRQAVTPVQACREEHSTNGSSSSSSSQLDDVLDSFPEIKDQSFNLPRMNSLRTILNGNFDWASLAGLNPIPELAPTNGLPSYGGYDAFRAAEGEAESGHVNRQQNSSGLTQSFGYSSSGFGVSGQTFEFRQ |  |  |  | binding result [5]: binds |
| At4g18010 BRRE MU (dsDNA) DNA 1: AAACCGAAAACATTTTTTAGAAAGAAGAAA DNA 2: TTTCTTCTTTCTAAAAAATGTTTTCGGTTT | no binding | no binding | no binding |  |
